Test: soluble on expression in E. coli; label from the status in PepcDB or PDB records

Row | Sequence | soluble on expression in E. coli
1 | SMGGRRAVRVWCDGCYDMVHYGHSNQLRQARAMGDYLIVGVHTDEEIAKHKGPPVFTQEERYKMVQAIKWVDEVVPAAPYVTTLETLDKYNCDFCVHGNDITLTVDGRDTYEEVKQAGRYRECKRTQGVSTTDLVGRMLLVTKAHHSSQEMSSEYREYADSFGKCPGGRNPWTGVSQFLQTSQKIIQFASGKEPQPGETVIYVAGAFDLFHIGHVDFLEKVHRLAERPYIIAGLHFDQEVNHYKGKNYPIMNLHERTLSVLACRYVSEVVIGAPYAVTAELLSHFKVDLVCHGKTEIIPDRDGSDPYQEPKRRGIFRQIDSGSNLTTDLIVQRIITNRLEY | soluble
2 | MKTAEAAKGRWPEILEHFDLPPITGKNHYRGECPVCGARGKFRIDDRDGAGTWICVCGSGDGMKLVTLTQGKPFNEICTEIDRLIGNDYQRVKIPVNSSATSLRKRVLSKFSKLEALRGTSGAAYLNSRGIFNLPAEAIRFNARQRHNGCVFQSLYSLATDDKGELCYLHQTLLDGAKKADIGSSSKRLKSLQEDNYLDHARSVAIRMFPVASTLGIAEGIETALSAHQIYKVNTWATINSGFMKKFRVPAGVLHLIIFADRDENSATGLAAAYECAHANLMAKNDLQRVSVYWPDHGDFNNMLMNGDQVRELVFHKKKVAA | not soluble
3 | MSLSTLQDLEKTLWATADKMRANMDPAEYKHIVLGLIFLKYISDSFAGRRAELERKFSDAGDDYYLGGDDPTYLASELEERDYYKEVNVFWVPEPARWESLRAAAKQVDIGKRIDDALADIEAENPQLKNILDKRYARAQLPDGKLGELVDMISIIGFSSDANKARDLLGQVYEYFLGQFASAEGKRGGQFYTPASIVKTLVAVLNPHHGKVYDPCCGSGGMFVQSEKFIEAHGGKLGDVSIYGQESNPTTWRLAAMNLAIRGMDFNLGKEPADSFIRNQHSDLRADFVLANPPFNISDWWHGSLDGDSRWVYGTPPQGNANYAWLQHMLFHLKSSGRAGIVLANGSMSSSQNSEGDIRRAMVEADVVEVMVALPGQLFFNTQIPACLWFLAKQKNKRPGEVLFIDARKLGTNISRVQIELLDSDIESIAQTVANWRGVPLEVDGEIAEYADVAGFCRSVPLAEIAEHGHVLTPGRYVGAEAVEEGHHHHHH | not soluble
4 | MSLKTLNIYLMRHGKVDAAPGLHGQTDLKVKEAEQQRIAMAWKTKGYDVAGIISSPLSRCHDLAQILAEQQLLPMTTEDDLQEMDFGDFDGMPFDLLTEHWKKLDAFWQSPAHHSLPNAESLSTFSQRVSRAWSQIINDINDNLLIVTHGGVIRIILAHVLGVDWRNPQWYSTLAIGNASVTHITITIDDQIYASVRSIGVPLVEEGHHHHHH | soluble
5 | MRYFPLFLDLTNKPVLVVGGGEVACRKIDALLRADAKVTVISPQVAPALQAWIEQGKCHWIQHFYSSHWLDKRYVQVWATTDNPELNHQVYKDAKEQGILVNVVDDQPYCDFITPSMIERGRIQLAISSGGASPVLIRNIRETLEAVLAQNLALLADFGASKRNSIKDFLPSVDLRRQFWERFFAHPEVKNAQDRESLERIYIHLLTQSTDKVSATTWIEFGADVELLSLKALRYMQQAELVLHTQDCPFVFVDLCRRDAQRQSFNSSVELSTLLLQAQQETQNVCVLIPSGSSEYALLQGKATVLKMAQQG | not soluble
6 | MSKLPMLSQNPENIKILHTAADFRYELLKQIENAQQRIYIVALYLENDDAGREIFTALYEAKQKNPTLDINVLVDWHRAQRGLIGAEKSDGNAALYREFSEKYEHSINVLGVPVRNKEVFGVLHLKGFIFDDTVVYSGASLNDVYLAHKDKYRFDRYHVLNNALLANSMVSFIKKTLIASPAVNCLSQQNRPDTKSLKPEIKELRKQLGLANYQFTSQTRKEGEVGITPLVGLGRKGNKLNNYIRTLLASATSEITICTPYFNFPKPIAKELKKALRRGVKVTIIVGDKTANDFYISPEEEFKTIAGLPYLYEINLRNFAKANETYIASRQLSLNLWKHENNSFHLKGMWVDKEYTLITGSNLNPRAWKLDLENGLLLQDPEQLLVDTKQAELDVILEHTQLIGSYKQVDKLDSYPVEVKKLIKRIKRIKADHILNQILLEHHHHHH | soluble
7 | VKDISMENLKKIFLGEVTNWKELGGKDQKIVILNRAAGSGTRATFEKWVLGDKTAIRAQEQDSSGMVRSIVSDTPGAISYTAFSYVTDEVATLSIDGVQPTDENVMNNKWIIWSYEHMYTRKNP | not soluble
8 | MCTGLALETKDGLHLFGRNMDIEYSFNQSIIFIPRNFKCVNKSNKKELTTKYAVLGMGTIFDDYPTFADGMNEKGLGCAGLNFPVYVSYSKEDIEGKTNIPVYNFLLWVLANFSSVEEVKEALKNANIVDIPISENIPNTTLHWMISDITGKSIVVEQTKEKLNVFDNNIGVLTNSPTFDWHVANLNQYVGLRYNQVPEFKLGDQSLTALGQGTGLVGLPGDFTPASRFIRVAFLRDAMIKNDKDSIDLIEFFHILNNVAMVRGSTRTVEEKSDLTQYTSCMCLEKGIYYYNTYENNQINAIDMNKENLDGNEIKTYKYNKTLSINHVN | soluble
9 | MEHKIVHVGDIPVANDKPFTLFAGMNVLESRDLAMQICEHYVKVTDKLGIPYVFKASFDKANRSSVHSYRGPGLEEGMKIFQELKETFGVKIITDVHTEAQAQPVADVVDVIQLPAFLARQTDLVEAMAKTGAVINVKKPQFMSPGQVGNIVEKFAECGNDKVILCERGSCHGYDNLVVDMLGFGVMKQASNGSPIIFDVTHSLQMRDPSGAASGGRREQTVELAKAGLATGIAGLFIEAHPNPDKARCDGPSALPLDKLEPFLAQMKALDDLIKSFAHIDIR | not soluble
10 | MGSDKIHHHHHHMHVFNYGRSYLERGDARPIYLPELPLVRGALLPQAPLDMAGALRDAAPDAWGRRVIINRLMGLKGVGAHAVEFDELTYLLHSGSDRIGALDFQTSPDRYRPREAENATLEELLEAAERVDRGEPIPPALDKALFHGSSIGGARPKALIEDGQEKFIAKFSATNDTYAIVKAEYVAMRLAKEAAGLTVAAVRLVKANGKDVLLVKRFDRERTGAGWTRRAMVSALTLLGLSEMQARYASYHDLTDIIRARFTEPRDSLRELYGRMVFNVLSGNTDDHARNHAAFWNGESLALTPAYDLCPQQRTGREANQAMLIGQEDRRSRLETCRLAASAFLLNDVEARALIHAQIDAIGAAWDGICDEADLSKIDRAFLWRRQFLNDYAFEGFGR | not soluble
11 | MDVEPIFCAEQIVIPHNLADILKAYTKEVIRRQPTDLIAFSAKYFTNLANVASGVSNSSAPAKEQLRQVYTRGGSGGATLTESQVTGLCQQAGIADAVVAKVMEVGAFTPAAVDLSKFVFLCLAMSCEDFNRVCMGVFDVFSDNGSLPAQDLLTLIAHLGPDMDPEVTPAFLDAVAAELPAGGGAVTYMELCEAPSLKPKLGLS | not soluble
12 | AIAAAPIESLLNEICESEDPIEELKSLRTAVLATPVSGLRPAVSGARLEIIFSLLNTNDKEQIEVCVEILSRVLQALEPVQLAQNYRTALQSGLNHPDDSVKVLTLTQIGRVAGHTEGVTQMLNNVEILHDVIQCISVERIAVAKEAIAALSKLSNTKAGLDALFRSDLLNKLKDVMLTSDIIRYRVYELIVEVSTVSPVSLGYCANSGLISQMLEELTGDDVLVRATAIEMVTNLAQSQHGRQYLAQQGIMDKISSVQKIFGAHNYLKLKTYLNEGSYYVTAVSAVTTEGAD | soluble
13 | MGSDKIHHHHHHMTGKTVDLKLPAKLDGLFKPCRYKVMYGGRGGGKSHGAASALLALGAQRPLRILCAREIQKSMRDSVHRLLKDKVAQLGLGHFYEITDFEIRGANGTLFVFSGLQSHTVDSIKSFEGIDIVWVEEGHGVSKKSWDVLTPTIRKEGSEIWITLNPDMETDETYRRFIAMPSEDTWLCEINWRDNPWFPEALNRERLKAQRSMNKEDYGNIWEGRPRMVSEGAVYRHEIQDAFHSGRVTLVPYDSSLPVHTVWDLGWNDAMTIGLVQRDLTSVRIIGYIEDTHRTLDWYVAELEKLPYRWGTDFLPHDGRTRNFQTGKSTMEILTGLGRKSVFVQNATGIEEGIRAARMLFPKVYFDKDKTARLLECLKRYGRQIHAKTGVAMGPLHDEYSHGADMFRYLAQAVDLMDTGSNTGYTETPVSDWRLY | not soluble
14 | MSLRILYLDPFSGISGDMFLGLLVDLGVDPEKIKSRLEKLNVEFDLVVKKVNKKGVTATKVDVVFPRKEHHEDHIVSDHDHHHHHGRHLSEIVEVLSRLEDPLKEKAIRMFEALAEAESKIHGLSKEKVHFHEVGAMDAVIEIAGAVVGLELLEVEKVFCGTVNTGSGFVMTEHGRYPVPAPATAELLKGIPIYMDQKVRAELVTPTGAVILKILVDEFRTPILRVEKVGYGAGTMDLEIPNVLRGYLGYIEPSERTGDVLIETNVDDMNPQLFGHLMERLFEAGAKDVFFTPIYMKKNRPAVKVSVLCHESKKDEILKLLFKESTSIGARVFYPEKVEATRTLKTVKTEYGEIPVKIASFDSEIVNISPEYEACKKVAQEKGIPLKEVYRAVYKSVSEVRNDVEGHHHHHH | soluble
15 | MGSDKIHHHHHHMKGIEIVNYGGPEVAKVRTFSSPVRRSGEVMIQVVASSINPVDIKYMTPETIQKIPSFPAILGWDIAGIIIEADKNSNFSAGERVVAFHPQGSWQQLVTASENQVVKLPDNIDFISGGSIPLAASTALQALRRLRLEPGERLLVTGAAGSVGYYALQFALKMGVKASGLVRNKNQKMSINLLDTEIYTNDDPIPEFDAVFDTAGVLNRIDVIHKGGRLVTVSDEQIDPQVLKHTSFAEHNYVRVNKEDLEEIVHLVSEAKIETRVAKIYSFNNVQEALAQAIKSGNNGKVMLIF | not soluble
16 | MAHHHHHHMRNSKEGNLIVHDLDFMKRILLNDERKWGEESAPGEGRTESSHQPKIITIVLNNTLCAHSAKFIANSDVLICADGGANRLYNLCQSLATERGAIDDEGSSLKGEEDKNTALHASHTNERSHHVSGRHTISDLFNMPVEKKEKALKRPTEIVPHIICGDFDSINAHVYSYYKNKSVIFEKCANQENTDLDKCIDVIRGYIRTNDKILILGATGNRFDHTCANISCLYKNASLNSLYLIGENNFLFLLQQGSHIIHVSPDVFCKGCGILPFGGKCTIKTEGLKYNLNDECLSFDTLISSSNEVVQREVKIFNDSPVVWSAQLRGDAQSHTHS | soluble
17 | TKDFNWNTDFIFSNAKNEVTDLKQNANVMELISGNGFAKQGYPVRGLFSIPFVGLDKDGIPVIINEKGEATSTDINFQERQNTGFLKYEGPTDPTITGSLGNMFSYKGFRLNLFITYSFGNVIRLNPVFKAYYSDLTAMTREFKNRWTLPGDEAKTNVPAILSKRMYDSNEDLKYAYNAYNYSTERIAKGDFIRLKEISLAYDFPKAWINPLKLTDLSLKVQATNLFLIYADDKLNGQDPEFFNAGGVASPVPRQFTITLRLGL | not soluble
18 | MSNSDEQILQFYVEHFEKALEKTQNVLLEFAESPLNHLKPTKRATDAQAFQFNSTCPGVENLNKLEREALFQQSSFVNLWLNLAYTCSKSSLSFWDSRDQGSEGGKLEVFMPRLHDSLTTEFHRIHLDPQEFATICAITTWKIHQWGTVEANTVAGQHYLAVIKELNNHHKKTTTMRDFERALRITEIISLLVPIGRMLQEVKTLYETLGIKDDGRE | not soluble
19 | MGKTNDWLDFDQLAEEKVRDALKPPSMYKVILVNDDYTPMEFVIDVLQKFFSYDVERATQLMLAVHYQGKAICGVFTAEVAETKVAMVNKYARENEHPLLCTLEKAGA | soluble
20 | GRTVVVTTIMESPYVMYKKNHEMFEGNDKYEGYCVDLASEIAKHIGIKYKIAIVPDGKYGARDADTKIWNGMVGELVYGKAEIAIAPLTITLVREEVIDFSKPFMSLGISIMIKKGTPIESAEDLAKQTEIAYGTLDSGSTKEFFRRSKIAVYEKMWTYMRSAEPSVFTRTTAEGVARVRKSKGKFAFLLESTMNEYIEQRKPCDTMKVGGNLDSKGYGVATPKGSSLRTPVNLAVLKLSEAGVLDKLKNKWWYDKGECG | soluble
21 | AGQFGTDYNAAIKVDTQTEFCGYVGTKGSSSVAAMFVEGNEVDSLSAGDKAIIVLGETPFYAESGGQCGDAGEIRTEAGVFRVEDTQKLGNAIAHHGVMAEGVLAKGDEVATIVDAERRAAISLN | not soluble
